Measured values: publication PMC8321654, “Heterogeneous nuclear ribonucleoprotein E1 binds polycytosine DNA and monitors genome integrity”

Target: GST-hnRNP E1 (UniProt Q15365 1-356)
Assay: EMSA; 25 mM Tris-HCl pH 7.6, 1 mM EDTA, 2% glycerol, 10 mM beta-ME, 50 ug/ml BSA, with or without 1.5 ng denatured E. coli DNA; 20 fmol probe in 50 ul; RT 15 min; 8-10% PAGE in 1x TBE
Conditions: protein: recombinant; tags: GST; label: 5'-32P

Chain of GST-hnRNP E1 (Q15365 whole entry): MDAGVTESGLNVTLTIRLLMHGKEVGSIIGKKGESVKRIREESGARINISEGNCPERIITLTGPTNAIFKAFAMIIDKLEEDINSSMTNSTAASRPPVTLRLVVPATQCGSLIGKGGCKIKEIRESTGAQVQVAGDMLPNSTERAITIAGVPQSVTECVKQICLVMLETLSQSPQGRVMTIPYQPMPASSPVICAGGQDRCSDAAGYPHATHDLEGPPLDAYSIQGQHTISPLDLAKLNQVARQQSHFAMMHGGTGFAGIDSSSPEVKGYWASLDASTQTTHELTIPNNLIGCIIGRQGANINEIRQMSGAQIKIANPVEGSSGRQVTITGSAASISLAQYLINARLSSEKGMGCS

B1: BAT RNA consensus (43 nt) (ssRNA)
RNA: AAUUGCUACCCAAUGCCUGGCCCAAGGGCAUUCCCAAAGCUUA
binding signal: 11 fold molar excess protein for 50% shift
